Data published in the supplement of paper PMC7877785.
± gives the uncertainty stated by the source.

Assay: self-splicing fitness, log relative to wild type (ln ratio); higher = more splicing; Tetrahymena group I intron in knt gene, E. coli kanamycin selection, DiMSum; sequences stand for … in CUCUCU…GGAGGGAAAAGUUAUCAGGCAUGCACCUGGUAGCUAGUCUUUAAACCAAUAGAUUGCAUCGGUUUAAAAGGCAAGACCGUCAAAUUGCGGGAAAGGGGUCAACAGCCGUUCAGUACCAAGUCUCAGGGGAAACUUUGAGAUGGCCUUGCAAAGGGUAUGGUAAUAAGCUGACGGACAUGGUCCUAACCACGCAGCCAAGUCCUAAGUCAACAGAUCUUCUGUUGAUAUGGAUGCAGUUCACAGACUAAAUGUCGGUCGGGGAAGAUGUAUUCUUCUCAUAAGAUAUAGUCGGACCUCUCCUUAAUGGGAGCUAGCGGAUGAAGUGAUGCAACACUGGAGCCGCUGGGAACUAAUUUGUAUGCGAAAGUAUAUUGAUUAGUUUUGGAGUACUCGUGGUCG
How it was run: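 Six replicate transformations of E. coli BL21(DE3) with a pET-22b(+) library were grown overnight at 37°C or 30°C. The library randomised all eight P1ex-region intron nucleotides, the intron lying in the knt kanamycin-resistance gene, and plates were LB agar with or without 25 μg/mL kanamycin plus 100 μg/mL carbenicillin, 50 μM IPTG and 0.2% rhamnose. Pooled colonies were amplicon-sequenced on an Illumina HiSeq 2500, and fitness is the DiMSum error-weighted combination of wild-type-normalised replicate fold changes, kanamycin versus none.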

| Sequence | self-splicing fitness (ln) (30 °C) | self-splicing fitness (ln) (37 °C) |
| --- | --- | --- |
| GUCCAGCAAUAUUACGCUAG | -1.18 ± 0.076 | -0.908 ± 0.1 |
| GUCCAGCAAUAUUACGCUUG | -1.57 ± 0.079 | -1.31 ± 0.09 |
| GUCCAGCAAUAUUACGGCUU | -0.269 ± 0.068 | 0.16 ± 0.087 |
| GUCCAGCAAUAUUACGGGCA | -2.25 ± 0.21 | -1.85 ± 0.18 |
| GUCCAGCAAUAUUACGGGCU | -2.54 ± 0.31 | – |
| GUCCAGCAAUAUUACGGGGG | -2.01 ± 0.1 | -1.55 ± 0.14 |
| GUCCAGCAAUAUUACGGUCC | -3.66 ± 0.35 | -2.68 ± 0.29 |
| GUCCAGCAAUAUUACGGUUG | -1 ± 0.067 | -0.214 ± 0.091 |
| GUCCAGCAAUAUUACGUACG | -1.58 ± 0.07 | -1.14 ± 0.1 |
| GUCCAGCAAUAUUACGUCUA | -0.899 ± 0.11 | -0.668 ± 0.12 |
| GUCCAGCAAUAUUACGUUCG | -1.26 ± 0.055 | -0.749 ± 0.079 |
| GUCGAGCAAUAUUACGAAAA | – | -2.58 ± 0.41 |
| GUCGAGCAAUAUUACGAAGG | -3.61 ± 0.47 | – |
| GUCGAGCAAUAUUACGAAUG | -4.06 ± 0.35 | -0.777 ± 0.2 |
| GUCGAGCAAUAUUACGAAUU | -3.05 ± 0.32 | -0.878 ± 0.19 |
| GUCGAGCAAUAUUACGACAA | -1.97 ± 0.24 | -2.85 ± 0.4 |
| GUCGAGCAAUAUUACGAGAU | – | -2.45 ± 0.39 |
| GUCGAGCAAUAUUACGAGGA | – | -2.44 ± 0.49 |
| GUCGAGCAAUAUUACGAUAC | -0.265 ± 0.28 | -0.381 ± 0.24 |
| GUCGAGCAAUAUUACGCAAG | -3.6 ± 0.27 | -2.71 ± 0.3 |
| GUCGAGCAAUAUUACGCACA | -1.76 ± 0.21 | -0.707 ± 0.18 |
| GUCGAGCAAUAUUACGCGCA | -0.713 ± 0.26 | -1.17 ± 0.21 |
| GUCGAGCAAUAUUACGCGUA | -1.26 ± 0.14 | -0.913 ± 0.11 |
| GUCGAGCAAUAUUACGGAUG | -1.27 ± 0.095 | -0.69 ± 0.13 |
| GUCGAGCAAUAUUACGGUAU | -1.34 ± 0.084 | -0.615 ± 0.12 |

| Sequence | self-splicing fitness (ln) (30 °C) | self-splicing fitness (ln) (37 °C) |
| --- | --- | --- |
| GUCGAGCAAUAUUACGGUCC | -3.17 ± 0.22 | -0.877 ± 0.17 |
| GUCGAGCAAUAUUACGGUUC | -2.27 ± 0.14 | -1.73 ± 0.17 |
| GUCGAGCAAUAUUACGUAAA | -2.73 ± 0.29 | -0.959 ± 0.27 |
| GUCGAGCAAUAUUACGUACG | -2.29 ± 0.26 | -2.44 ± 0.41 |
| GUCGAGCAAUAUUACGUACU | -2.83 ± 0.29 | -0.966 ± 0.21 |
| GUCGAGCAAUAUUACGUAUC | -0.209 ± 0.13 | -1.42 ± 0.15 |
| GUCGAGCAAUAUUACGUCCG | -4 ± 0.43 | -0.959 ± 0.3 |
| GUCGAGCAAUAUUACGUCGG | – | -2.34 ± 0.22 |
| GUCGAGCAAUAUUACGUCUG | -3.5 ± 0.43 | -2.51 ± 0.3 |
| GUCGAGCAAUAUUACGUUAC | -3.38 ± 0.22 | -1.49 ± 0.27 |
| GUCGAGCAAUAUUACGUUUA | -2.37 ± 0.15 | -1.87 ± 0.15 |
| GUCUAGCAAUAUUACGAAAU | 0.0935 ± 0.11 | 0.4 ± 0.1 |
| GUCUAGCAAUAUUACGAACG | -1.83 ± 0.2 | -1.13 ± 0.23 |
| GUCUAGCAAUAUUACGACAC | -0.746 ± 0.13 | -0.011 ± 0.11 |
| GUCUAGCAAUAUUACGCGUC | -2.18 ± 0.099 | -0.0852 ± 0.1 |
| GUCUAGCAAUAUUACGCUCU | -0.178 ± 0.13 | 1.05 ± 0.15 |
| GUCUAGCAAUAUUACGCUUG | -1.22 ± 0.11 | -0.705 ± 0.11 |
| GUCUAGCAAUAUUACGGAAG | -0.159 ± 0.09 | 0.218 ± 0.12 |
| GUCUAGCAAUAUUACGGAUU | -1.75 ± 0.089 | -0.0906 ± 0.085 |
| GUCUAGCAAUAUUACGGCAU | -0.166 ± 0.092 | 0.88 ± 0.11 |
| GUCUAGCAAUAUUACGGCUU | -0.982 ± 0.12 | 0.12 ± 0.14 |
| GUCUAGCAAUAUUACGGGGA | -2.08 ± 0.25 | -3.16 ± 0.32 |
| GUCUAGCAAUAUUACGGGUG | -1.28 ± 0.05 | -0.553 ± 0.058 |
| GUCUAGCAAUAUUACGGUAC | -0.985 ± 0.14 | -0.625 ± 0.17 |
| GUCUAGCAAUAUUACGGUGC | 0.0594 ± 0.14 | -0.142 ± 0.15 |

| Sequence | self-splicing fitness (ln) (30 °C) | self-splicing fitness (ln) (37 °C) |
| --- | --- | --- |
| GUCUAGCAAUAUUACGGUUU | -1.42 ± 0.077 | -0.192 ± 0.095 |
| GUCUAGCAAUAUUACGUAAC | -0.708 ± 0.13 | -0.195 ± 0.13 |
| GUCUAGCAAUAUUACGUACA | -0.922 ± 0.1 | -0.376 ± 0.1 |
| GUCUAGCAAUAUUACGUAUU | -0.645 ± 0.086 | -0.635 ± 0.095 |
| GUCUAGCAAUAUUACGUUGG | -3.01 ± 0.15 | -1.86 ± 0.14 |
| GUGAAGCAAUAUUACGAACC | -3.05 ± 0.29 | – |
| GUGAAGCAAUAUUACGACGG | -0.531 ± 0.12 | -0.418 ± 0.23 |
| GUGAAGCAAUAUUACGACUG | -1.37 ± 0.09 | -0.924 ± 0.14 |
| GUGAAGCAAUAUUACGAGAC | -2.62 ± 0.19 | -0.955 ± 0.12 |
| GUGAAGCAAUAUUACGAGCG | -0.702 ± 0.087 | 0.396 ± 0.12 |
| GUGAAGCAAUAUUACGAUAC | -0.501 ± 0.11 | -0.461 ± 0.14 |
| GUGAAGCAAUAUUACGAUAG | -2.11 ± 0.19 | -0.681 ± 0.18 |
| GUGAAGCAAUAUUACGCAGG | -1.88 ± 0.1 | -0.654 ± 0.1 |
| GUGAAGCAAUAUUACGCCCC | -0.362 ± 0.33 | – |
| GUGAAGCAAUAUUACGCCCG | -0.347 ± 0.39 | -0.026 ± 0.42 |
| GUGAAGCAAUAUUACGCGCC | -4.14 ± 0.33 | -2.69 ± 0.41 |
| GUGAAGCAAUAUUACGCUAG | -0.945 ± 0.14 | 0.0205 ± 0.23 |
| GUGAAGCAAUAUUACGCUGU | -2.74 ± 0.13 | -1.29 ± 0.12 |
| GUGAAGCAAUAUUACGGAAU | -1.06 ± 0.18 | -0.308 ± 0.18 |
| GUGAAGCAAUAUUACGGAGA | -2.03 ± 0.32 | -1.19 ± 0.47 |
| GUGAAGCAAUAUUACGGCGA | 0.0822 ± 0.15 | 0.297 ± 0.18 |
| GUGAAGCAAUAUUACGGUAU | -1.47 ± 0.076 | -0.418 ± 0.1 |
| GUGAAGCAAUAUUACGGUGA | -0.922 ± 0.11 | 0.58 ± 0.14 |
| GUGAAGCAAUAUUACGUACG | -0.64 ± 0.16 | 0.312 ± 0.15 |
| GUGAAGCAAUAUUACGUCCG | -0.484 ± 0.15 | -0.103 ± 0.17 |

| Sequence | self-splicing fitness (ln) (30 °C) | self-splicing fitness (ln) (37 °C) |
| --- | --- | --- |
| GUGAAGCAAUAUUACGUCCU | -0.476 ± 0.12 | 0.382 ± 0.18 |
| GUGAAGCAAUAUUACGUCUG | -1.29 ± 0.12 | -0.0242 ± 0.2 |
| GUGAAGCAAUAUUACGUGGC | -2.6 ± 0.14 | -2.41 ± 0.23 |
| GUGAAGCAAUAUUACGUGUC | -2.89 ± 0.11 | -1.83 ± 0.12 |
| GUGAAGCAAUAUUACGUUGC | – | -1.92 ± 0.46 |
| GUGAAGCAAUAUUACGUUUA | -1.01 ± 0.064 | -0.109 ± 0.11 |
| GUGCAGCAAUAUUACGAUAA | -2.55 ± 0.16 | -1.04 ± 0.13 |
| GUGCAGCAAUAUUACGAUAU | -0.385 ± 0.091 | -0.244 ± 0.12 |
| GUGCAGCAAUAUUACGAUCG | -1.95 ± 0.12 | -1.45 ± 0.1 |
| GUGCAGCAAUAUUACGCCAG | -2.82 ± 0.47 | – |
| GUGCAGCAAUAUUACGCGUC | -3.39 ± 0.3 | -1.4 ± 0.21 |
| GUGCAGCAAUAUUACGCUAA | -0.546 ± 0.17 | 0.418 ± 0.15 |
| GUGCAGCAAUAUUACGCUAU | -2.36 ± 0.15 | -1.14 ± 0.12 |
| GUGCAGCAAUAUUACGGCGU | -1.58 ± 0.096 | -1.93 ± 0.17 |
| GUGCAGCAAUAUUACGGGGU | -2.79 ± 0.22 | -2.19 ± 0.24 |
| GUGCAGCAAUAUUACGGUUA | -0.723 ± 0.092 | -0.164 ± 0.089 |
| GUGCAGCAAUAUUACGGUUU | -0.309 ± 0.062 | -0.000827 ± 0.076 |
| GUGCAGCAAUAUUACGUACC | – | -2.41 ± 0.32 |
| GUGCAGCAAUAUUACGUACU | -2.7 ± 0.39 | -0.869 ± 0.38 |
| GUGCAGCAAUAUUACGUCGU | -1.01 ± 0.12 | -0.193 ± 0.14 |
| GUGCAGCAAUAUUACGUGAA | -0.187 ± 0.1 | -1.19 ± 0.14 |
| GUGCAGCAAUAUUACGUGCG | -2.56 ± 0.1 | -2.06 ± 0.14 |
| GUGCAGCAAUAUUACGUUGA | -1.49 ± 0.13 | -0.806 ± 0.14 |
